Common to all, as to assay: flow cytometry, alanine-scan library in HEK-293T
One test concerns the target T1, hsGLUT4 L61A (human, UniProt P14672 1-509).
T1 sequence: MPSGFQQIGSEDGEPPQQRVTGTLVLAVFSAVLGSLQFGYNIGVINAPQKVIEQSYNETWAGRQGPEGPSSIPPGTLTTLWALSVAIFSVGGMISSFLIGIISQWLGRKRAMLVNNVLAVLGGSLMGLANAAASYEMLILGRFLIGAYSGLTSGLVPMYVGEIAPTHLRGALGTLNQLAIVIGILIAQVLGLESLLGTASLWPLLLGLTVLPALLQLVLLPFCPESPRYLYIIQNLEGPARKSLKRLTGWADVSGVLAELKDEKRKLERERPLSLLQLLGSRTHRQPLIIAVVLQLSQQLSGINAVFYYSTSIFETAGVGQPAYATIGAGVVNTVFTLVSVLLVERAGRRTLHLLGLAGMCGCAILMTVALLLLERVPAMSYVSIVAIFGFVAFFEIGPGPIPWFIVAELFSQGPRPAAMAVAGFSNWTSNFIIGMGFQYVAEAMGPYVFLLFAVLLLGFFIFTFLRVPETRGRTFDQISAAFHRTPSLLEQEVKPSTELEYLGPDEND
As for the experimental part:
(§1) Because of the state-dependence of the isolated MAbs, we next wished to understand the mechanism by which each MAb could recognize GLUT4 in its different conformations. The residues required for binding of each MAb were determined using shotgun mutagenesis comprehensive alanine scanning (Davidson E & Doranz B J (2014) A High-Throughput Shotgun Mutagenesis Approach to Mapping B-cell Antibody Epitopes. Immunology, which is hereby incorporated by reference in its entirety). All residues of hsGLUT4 were individually mutated to alanine, with existing alanines changed to serines. Mutations were obtained for 508 of the 509 residues of GLUT4 (excluding the initiating methionine). The entire mutation library was transfected into human HEK-293T cells in a 384-well array format (one clone per well) and assessed for immunoreactivity using high-throughput flow cytometry.
(§2) HEK-293T cells were transfected by CaPO₄ with plasmids in 6-well culture plates (Falcon) at 750,000 cells/well. At 48 hours post transfection, cells were stained with anti-V5 and anti-GLUT4 MAbs (purified scFv, 2 μg/ml) followed by biotinylated goat anti-mouse or human antibody (1:500) and streptavidin-PerCP (1:500). Fluorescence was detected using an Intellicyt high-throughput flow cytometer (HTFC; Intellicyt, Albuquerque, N. Mex.). For cell permeabilization, cells were treated with saponin at 0.1% in PBS for 20 minutes. To discriminate intact (live) and permeabilized (dead) cells without the use of detergent, propidium iodide (PI) was added to HEK-293T cells at 1 ug/ml just prior to flow cytometry. Where indicated, cytochalasin B (Sigma) was used at a final concentration of 10 uM and phloretin (Sigma) was used at a final concentration of 100 uM, each added in 10% NGS for 30 minutes prior to antibody staining as well as included with the primary antibody.

In another test the target is T2, hsGLUT4 Q295A (human, UniProt P14672 1-509).
T2 sequence: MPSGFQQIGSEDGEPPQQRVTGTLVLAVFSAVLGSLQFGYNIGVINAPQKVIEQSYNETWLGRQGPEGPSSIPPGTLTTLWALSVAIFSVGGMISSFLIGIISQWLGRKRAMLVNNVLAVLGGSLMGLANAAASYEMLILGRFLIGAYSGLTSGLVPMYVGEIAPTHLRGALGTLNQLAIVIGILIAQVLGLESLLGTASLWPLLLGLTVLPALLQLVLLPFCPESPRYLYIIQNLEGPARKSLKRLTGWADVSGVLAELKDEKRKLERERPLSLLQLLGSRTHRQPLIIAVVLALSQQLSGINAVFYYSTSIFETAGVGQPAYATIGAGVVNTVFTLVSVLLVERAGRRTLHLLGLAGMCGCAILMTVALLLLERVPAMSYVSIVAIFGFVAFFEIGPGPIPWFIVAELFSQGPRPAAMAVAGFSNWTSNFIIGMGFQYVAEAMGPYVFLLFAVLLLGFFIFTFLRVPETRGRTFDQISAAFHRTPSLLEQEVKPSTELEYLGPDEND
The protocol: as §1, §2

The target in a further test is T3, hsGLUT4 G348A (human, UniProt P14672 1-509).
T3 sequence: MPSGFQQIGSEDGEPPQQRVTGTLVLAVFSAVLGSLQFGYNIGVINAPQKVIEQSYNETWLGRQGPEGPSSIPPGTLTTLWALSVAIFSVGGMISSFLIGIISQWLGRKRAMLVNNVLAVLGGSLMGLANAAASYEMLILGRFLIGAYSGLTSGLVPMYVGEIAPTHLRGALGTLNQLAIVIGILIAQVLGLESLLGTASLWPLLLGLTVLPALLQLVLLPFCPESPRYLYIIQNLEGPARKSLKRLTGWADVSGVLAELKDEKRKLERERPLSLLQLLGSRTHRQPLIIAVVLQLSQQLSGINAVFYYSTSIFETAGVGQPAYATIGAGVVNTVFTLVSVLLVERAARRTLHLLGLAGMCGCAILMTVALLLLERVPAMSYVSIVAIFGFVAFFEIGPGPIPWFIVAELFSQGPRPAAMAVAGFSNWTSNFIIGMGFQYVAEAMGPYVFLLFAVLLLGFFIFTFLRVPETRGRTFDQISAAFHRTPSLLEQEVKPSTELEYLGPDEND
The protocol:
as §1, §2

Another test addresses T4, hsGLUT4 F314A (human, UniProt P14672 1-509).
T4 sequence: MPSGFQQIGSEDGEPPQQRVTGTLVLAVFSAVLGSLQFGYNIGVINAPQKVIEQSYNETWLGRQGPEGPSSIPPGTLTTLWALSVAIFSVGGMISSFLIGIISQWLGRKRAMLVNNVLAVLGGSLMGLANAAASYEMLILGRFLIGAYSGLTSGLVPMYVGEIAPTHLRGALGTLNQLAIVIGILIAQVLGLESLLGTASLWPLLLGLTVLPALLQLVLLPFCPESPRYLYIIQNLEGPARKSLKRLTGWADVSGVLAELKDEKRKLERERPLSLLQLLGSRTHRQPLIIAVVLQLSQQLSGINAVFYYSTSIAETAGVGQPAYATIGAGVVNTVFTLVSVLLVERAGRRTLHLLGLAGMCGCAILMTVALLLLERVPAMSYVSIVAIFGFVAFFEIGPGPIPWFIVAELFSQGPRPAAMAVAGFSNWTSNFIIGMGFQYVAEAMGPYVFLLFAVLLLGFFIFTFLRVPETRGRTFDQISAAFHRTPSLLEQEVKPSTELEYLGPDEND
The protocol: as §1, §2

Regarding 1F8 (antibody), the % of binding to wild type GLUT4 in the test with hsGLUT4 L61A came out at 90%; with hsGLUT4 Q295A it was 81%; in the test with hsGLUT4 G348A, 109%; with hsGLUT4 F314A, 91%.

B1: AB101 (scFv)
scFv: ALTQPSSVSANPGETVKITCSGSSNSYGWYQQKSPGSAPVTVIYYNDKRPSDIPSRFSGSKSDSTHTLTITGVRAEDEAVYFCGSYDSTYVGIFGAGTTLTVLGQSSRSSGGGGSSGGGGSAVTLDESGGGLQTPGGTLSLVCKASGFTFSSNAMGWVRQAPGKGLEWVAGISSDGRYTKYGSAVKGRATISRDNGQSTVRLQLNNLRAEDTGTYFCAKAFGNNYRRIYAGQIDAWGHGTEVIVSS
notes: Chicken-derived clone used as a control; the four lead clones were tested as scFv-human IgG1 Fc; also called MAb AB101
Regarding B1, the “% of binding to wild type GLUT4” value with hsGLUT4 L61A stood at 115%; in the test with hsGLUT4 Q295A, 102%; with hsGLUT4 G348A, 101%; in the test with hsGLUT4 F314A it was 91%.

B2: AB111 (Fc fusion)
scFv: ALTQPSSVSANPGETVKITCSGSGSWYGWFQQKSPGSAPVTVIYSNDKRPSDIPSRFSGSKSGSTSTLTITGVQVEDEAVYYCGNWDIFGAGTTLTVLGQSSRSSGGGGSSGGGGSAVTLDESGGGLQTPGGALSLVCKASGFTFSSHGMGWVRQAPGKGLEWVASISTGRYTFYAPAVKGRATISRDNGQSTVRLQLNNLRAEDTATYYCTKCAGLNGCGGGEIDAWGHGTEVIVSS
notes: Bivalent scFv-Fc; also called MAb AB111; not shown: Fc fragment of human IgG1, cloned in frame with the scFv
Take B2: the “% of binding to wild type GLUT4” value in the test with hsGLUT4 L61A came to 80%; with hsGLUT4 Q295A, 138%; in the test with hsGLUT4 G348A, 161%; with hsGLUT4 F314A, 166%.

B3: AB108 (Fc fusion)
scFv: ALTQPSSVSANLGGTVKITCSGSSGSYGWYQQKAPGSAPVTLIYRNDKRPSDIPSRFSGSESGSTGTLTITGVQAEDEAVYFCGGYDSSAGYAAFGAGTTLTVLGQSSRSSGGGGSSGGGGSAVTLDESGGGLQTPGGALSLVCKASGFTFSSHGMGWVRQAPGKGLEWVGSISTGRYTFYAPAVKGRATISRDNGQSTLRLQLNNLRAEDTGTYYCTKCAGLNGCGGGEIDAWGHGTEVIVSS
notes: Bivalent scFv-Fc; also called MAb AB108; not shown: Fc fragment of human IgG1, cloned in frame with the scFv
Regarding B3, the “% of binding to wild type GLUT4” value in the test with hsGLUT4 L61A is 13%; with hsGLUT4 Q295A it was 113%; with hsGLUT4 G348A it was 94%; in the test with hsGLUT4 F314A it was 92%.

Values taken from US20210238276A1 (INTEGRAL MOLECULAR, published 2021).
